Target: the molecule itself
Experiment: crystal structure

B1: RdmB, N-terminal His6-tagged (enzyme, Streptomyces purpurascens)
chain: MSSSSPGEPLEPTDQDLDVLLKNLGNLVTPMALRVAATLRLVDHLLAGADTLAGLADRTDTHPQALSRLVRHLTVVGVLEGGEKQGRPLRPTRLGMLLADGHPAQQRAWLDLNGAVSHADLAFTGLLDVVRTGRPAYAGRYGRPFWEDLSADVALADSFDALMSCDEDLAYEAPADAYDWSAVRHVLDVGGGNGGMLAAIALRAPHLRGTLVELAGPAERARRRFADAGLADRVTVAEGDFFKPLPVTADVVLLSFVLLNWSDEDALTILRGCVRALEPGGRLLVLDRADVEGDGADRFFSTLLDLRMLTFMGGRVRTRDEVVDLAGSAGLALASERTSGSTTLPFDFSILEFTAVSEEAAPAAQASEALPAQE
  binding result: binds
